Results: paper doi:10.1101/2025.02.26.640373

Molecular target: SHP2^WT-TurboID (UniProt Q06124)

PD-1 pY248 phosphopeptide was tested, and the in vitro phosphatase activity (initial velocity, RFU/s, DiFMUP substrate): +PD-1 pY248 over basal activity was 10 fold.
